Measured values: patent publication US20180216133A1

Assays:
[1] = target: AAV3B capsid (vector AAV2/3B.CB7.CI.ffluciferase.RBG) (adeno-associated virus 3B); test: AVB Sepharose HiTrap column, DPBS wash fraction; real-time PCR
[2] = target: AAV3B-NKDKLN capsid mutant (SPAKFA→NKDKLN) (adeno-associated virus 3B (engineered)); test: as above
[3] = target: AAV3B capsid (vector AAV2/3B.CB7.CI.ffluciferase.RBG) (adeno-associated virus 3B); test: AVB Sepharose HiTrap column, AVB.C (1 M NaCl) wash fraction; real-time PCR
[4] = target: AAV3B-NKDKLN capsid mutant (SPAKFA→NKDKLN) (adeno-associated virus 3B (engineered)); test: as above
[5] = target: AAV3B capsid (vector AAV2/3B.CB7.CI.ffluciferase.RBG) (adeno-associated virus 3B); test: AVB Sepharose HiTrap column, unbound vector in flow-through; real-time PCR
[6] = target: AAV3B-NKDKLN capsid mutant (SPAKFA→NKDKLN) (adeno-associated virus 3B (engineered)); test: as above
[7] = target: AAV3B capsid (vector AAV2/3B.CB7.CI.ffluciferase.RBG) (adeno-associated virus 3B); test: AVB Sepharose HiTrap column, clarified AAV3B product; genome copies per fraction by real-time PCR
[8] = target: AAV3B capsid (vector AAV2/3B.CB7.CI.ffluciferase.RBG) (adeno-associated virus 3B); test: AVB Sepharose HiTrap column, clarified culture supernatant, AAV3B vs AAV3B-NKDKLN head-to-head; real-time PCR
[9] = target: AAV3B-NKDKLN capsid mutant (SPAKFA→NKDKLN) (adeno-associated virus 3B (engineered)); test: as above
[10] = target: AAVrh64R1 capsid (vector) (adeno-associated virus rh.64R1); test: AVB Sepharose HiTrap column, purified vector mix AAVrh64R1+AAVrh10; genome copies per fraction by real-time PCR
[11] = target: AAV8 capsid (vector) (adeno-associated virus 8); test: AVB Sepharose HiTrap column, purified vector mix AAV8+AAVhu37+AAVrh10; genome copies per fraction by real-time PCR
[12] = target: AAVhu37 capsid (vector AAV2/AAVhu37.TBG.EGFP.bGH) (adeno-associated virus hu37); test: as above
[13] = target: AAV8 capsid (vector) (adeno-associated virus 8); test: AVB Sepharose HiTrap column, clarified culture supernatant, wild type vs SPAKFA mutant head-to-head; real-time PCR
[14] = target: AAV8-SPAKFA capsid mutant (NQSKLN→SPAKFA) (adeno-associated virus 8 (engineered)); test: as above
[15] = target: AAV9 capsid (vector, CB7.CI.ffluciferase.RBG) (adeno-associated virus 9); test: as above
[16] = target: AAV9-SPAKFA capsid mutant (NKDKLN→SPAKFA) (adeno-associated virus 9 (engineered)); test: as above
[17] = target: AAVrh64R1 capsid (vector) (adeno-associated virus rh.64R1); test: as above
[18] = target: rh.64R1-SPAKFA capsid mutant (NQAKLN→SPAKFA) (adeno-associated virus rh.64R1 (engineered)); test: as above
[19] = target: AAVrh10 capsid (vector AAV2/AAVrh10.CMV.PI.Cre.RBG) (adeno-associated virus rh10); test: AVB Sepharose HiTrap column, purified vector mixes; genome copies per fraction by real-time PCR (average of two runs)

## AVB Sepharose High Performance affinity resin ligand: 14kD fragment from a single chain llama antibody expressed in yeast (VHH)
[1]
  percent of vector genomes in wash 1 (W1) fraction: 0%
[2]
  percent of vector genomes in wash 1 (W1) fraction: 0.1%
[3]
  percent of vector genomes in wash 2 (W2) fraction: 0.3%
[4]
  percent of vector genomes in wash 2 (W2) fraction: 4.6%
[5]
  percent of vector genomes in flow-through (FT) fraction: 1.3%
[6]
  percent of vector genomes in flow-through (FT) fraction: 8.2%
[7]
  percent of vector genomes recovered in the elution fraction: 98%
[8]
  elution fraction yield: 98%
[9]
  elution fraction yield: 87%
[10]
  percent of loaded vector genome in the elution fraction: 22%
[11]
  percent of loaded vector genome in the elution fraction: 20%
[12]
  percent of loaded vector genome in the elution fraction: 82%
[13]
  percent recovery of loaded vector in the elution fraction (of total fractions): 30%
[14]
  percent recovery of loaded vector in the elution fraction (of total fractions): 93%
[15]
  percent recovery of loaded vector in the elution fraction (of total fractions): 0.6%
[16]
  percent recovery of loaded vector in the elution fraction (of total fractions): 51%
[17]
  percent recovery of loaded vector in the elution fraction (of total fractions): 18%
[18]
  percent recovery of loaded vector in the elution fraction (of total fractions): 91%
[19]
  percent of loaded vector genome in the elution fraction: 84%
